In the DeepSol protein solubility set:

Assay: soluble on expression in E. coli; label from the status in PepcDB or PDB records

| Sequence | soluble on expression in E. coli |
| --- | --- |
| MGSDKIHHHHHHMKSFQLVATAASGLEAIVGKEVARLGYDPKVENGKVYFEGDLSAIARANLWLRVADRVKIVVGVFKATTFDELFEKTKALPWEDYLPLDAQFPVAGKSVKSTLYSVPDCQAIVKKAIVNRVSEKYRRSGRLMETGALFKLEVSILKDEVTLTIDTSGAGLHKRGYRLAQGSAPIKETMAAALVLLTSWHPDRPFYDPVCGSGTIPIEAALIGQNIAPGFNREFVSETWDWMPKQVWADARQEAEDLANYDQPLNIIGGDIDARLIEIAKQNAVEAGLGDLITFRQLQVADFQTEDEYGVVVANPPYGERLEDEEAVRQLYREMGIVYKRMPTWSVYVLTSYELFEEVYGKKATKKRKLYNGYLRTDLYQYWGPRKPRPKKED | not soluble |
| MGSDKIHHHHHHMKTAILDRFVFSDEVRDIIENAPEIIIPESRKEILDLAIAGRDLFEVGYEVPGKGFVVEATVTRCKNGLVVNYPEPYMRRRDPNALVVGDNLETDKPRFRERFGKEFEPIRQETFEWLKKQELILLPFMAGGYDYGYPAVLIAPKNAGFFVGGLADLQFFVPASEVPENFKPKLYMFLAPPFRHTHFDGKQVVVHYRHNSHYEIFSYNLYPGPSAKKGVYGFLLHVGEKEKWVTAHASAVKVITPYENELVIMHEGASGGGKSEILEEIHREPDGRIKLAENIVTGEKFYMELKQSCVLMPVADDMFMCHPKLQTGKKLVAKDAEAGWFIRVDHITEYGSAPDLERLTIHPPEPLIFLNIYAVPNSTALIWEHIEDEPGKPCPNPRVIIPKRFMKNAVSEPVKVDVRSFGVRTPPCTKEKPTYGIVGLMQILPPALAWLWRLVAPRGHANPSIVSTKGMTSEGVGSFWPFSSGKMVRLANILLEQIIDTPETRYILVPNQYIGAYKVGFMPEWIAREYLSRRGGVRFRPDQLVPSKCSLLGFSLKEMKIEGNTIPKELLQPHLQSEVGEEAYEKGAQELKDFFKRELKKFLTEDLNPVGREIIQCCLDDGSLDDYLKIIPMNF | not soluble |
| MGSDKIHHHHHHMKTLCTHSLPKEKMPYLLRSGEGERYLFGRQVATVMANGRSTGDLFEIVLLSGGKGDAFPLHVHKDTHEGILVLDGKLELTLDGERYLLISGDYANIPAGTPHSYRMQSHRTRLVSYTMKGNVAHLYSVIGNPYDHAEHPPYASEEVSNERFAEAAAVADIVFLDEAKPACSAKLAELTELPDGAVPYVLESGEGDRLLTGDQLHRIVAAQKNTDGQFIVVSSEGPKGDRIVDHYHEYHTETFYCLEGQMTMWTDGQEIQLNPGDFLHVPANTVHSYRLDSHYTKMVGVLVPGLFEPFFRTLGDPYEGHIFPCEPQALRFDRILQNIEALDLKVMKP | not soluble |
| MGSDKIHHHHHHMKTLKGPAIFLAQFIGDTPPFDKLETMAAWVSSLGYAGVQMPTGGADSFFDLALAAESQTYCDDIAGLLAEYGLEITELSTHLQGQLVAVHPAYDELFDGFAPPELRGKPKERQAWAVEQVKAAAVASRRLGLKAHATFSGSLAWPYLYPWPQRPAGLIEEAFAELGRRWKPILDVFDENGVDAAYEIHPGEDLHDGATFERFLDEVGGHPRANILYDPSHFVLQQLDYLAYIDRYHERIKAFHVKDAEFRPSARSGVYGGYQGWVDRPGRFRSLGDGQVDFKAIFSKLAQYDYDGWAVLEWECALKHPEQGAAEGAPFIRDHIIRVTDKAFDDFASAGSEAGRNRRLLGL | not soluble |
| MGSDKIHHHHHHMKVKKWVTQDFPMVEESATVRECLHRMRQYQTNECIVKDREGHFRGVVNKEDLLDLDLDSSVFNKVSLPDFFVHEEDNITHALLLFLEHQEPYLPVVDEEMRLKGAVSLHDFLEALIEALAMDVPGIRFSVLLEDKPGELRKVVDALALSNINILSVITTRSGDGKREVLIKVDAVDEGTLIKLFESLGIKIESIEKEEGF | soluble |
| MGSDKIHHHHHHMKVNLPAFERAGVMVVGDVMLDRYWYGPTCRISPEAPVPVVKVNTVEERPGGAANVAMNIASLGANARLVGLTGIDDAARALSKTLAEVNVKCDFVSVPTHPTITKLRVLSRNQQLIRLDFEEGFEGVDPQPLHERINQALGSIGALVLSDYAKGALTSVQTMISLARQAGVPVLIDPKGTDFERYRGATLLTPNLSEFEAVAGKCKSEDELVERGMKLIADYDLSALLVTRSEQGMTLLQPNKAPLHMPTQAQEVYDVTGAGDTVIGVLAATLAAGNTLEEACYFANAAAGVVVGKLGTSTVSPIELENAVRGRADTGFGVMTEEELRQAVASARKRGEKVVMTNGVFDILHAGHVSYLANARKLGDRLIVAVNSDASTKRLKGESRPVNPLEQRMIVLGALESVDWVVSFEEDTPQRLIAGILPDLLVKGGDYKPEEIAGSEEVWANGGEVMVLNFEDGCSTTNIIKKIQTESEK | not soluble |
| MGSDKIHHHHHHMKVSVVILNWNGCDMLRTFLPSVIRYSKSEEVEVCVADNGSTDASVEMLREEFPCVRIIVLDQNHGFADGYNLALQQVEAEYVVLLNSDVEVTEHWLEPMISYLDGHPEVAACQPKIRSQRQKEYFEYAGAAGGFIDKYGYPFCRGRIMGVVEKDEGQYDTILPVFWATGAALFIRHADYREAGGLDGRFFAHMEEIDLCWRLRSRGREIVCIPQSTVYHVGGATLKKENPRKTFLNFRNNLVMLYKNLSDEELNKVMRIRTCLDYVAAFTFLLKGQLDNARAVMRARKEYKQICPSFSSSRKENLRKTSLNPIPERIKSSILWQFYVGGCKRFSQLSDLKG | not soluble |
| MGSDKIHHHHHHMKYQQKLRNMIDFIGKHLDEELSLESLSEIFCISKFHFHRLFTAFTGLSLQQYIKWLRLKRAAHQLIVDKDQSVINIAINAGFESHEAFSRAFKKACGFSPSQFRQGFGRSYWEQPPYCLPGQSRTDMKVDIKSIDKIRLAVIEHKGDPKLLGESINKLVSWAKSQSINLKPRAGEAFALAYDDPKTTPPSDFRIDLGIKVPENLKLDGVIEKFLPSGRYAVTVHKGSRNNIGDVVYYLYRDWLPNTSEQLGDLPCIFCYYNFDHEVAETELLTECWLLLK | not soluble |
| MGSDKIHHHHHHMKYYICVCVFLLLNACNSDFSTNQEDIKYPSDKEKSKSNMEASSKEEDPNKKIKNTLLNDLINLIEIANEHKEKYEKRMQEEPSDQYGILAFQELDLSVGKISEDTPQSKKFRKNTYSPLSAIDVNKLKDLSEIIRNSGQIQGLFNIFNRFGGIFDDSLNHVYSKKDILGGLEILDLDKLKNSFEKLLSIKETFSKMLNQLLLDYKNDKDHIRTETNKLKSHTTALFEQLDKKEDEAYEPKNQIFSISNL | not soluble |
| MGSDKIHHHHHHMLANGDVPILQLQHIIKRFGNQVAVNDVSLNIHRGEIVALLGENGAGKSTLIKILAGLYSRDEGEIYFHQQKIQSAQSLTNKNKQPIAFIHQDLGLVEWMTIAENMAFVMGFPRRFGLIDWKKINQQAQEALDFVGIHLSAQTRVFDLSRTEKALLTIARAIAVNAEILVLDEPTASLPASDVEHLFKVLNRLRKQGVGMIYVTHRLDEVIRLSDRILVMRDGYSVAEGSTKDYDVKALVKAIVGEETREKQREPLPKNTPEVVRLNEVVVGDTGPVSFSLHQGEMIALAGLRGAGQEEIGRLLFGLRKLESGDISLNECAYHAESPCEAIYKGVALVAGDRIREGLVMSMTTMENLFINPILSGHFPLKNYASKKERSECWYQFQLFDIRPKNLFIEVSSLSGGNQQKIVLARWMQLNTPVLILEDPTAGVDVGARAEIYDLLNQALKKGVAIIVISNDFEEIAHLCNRALVFNRGDIVGELFNEQVTFANLLALASDASATIN | not soluble |
| MGSDKIHHHHHHMLCENCHFNEAEVKLTVKGIDSTHEKWVCSVCAQGENPWLHSNDDNTYHTHQDDIEEAFVVKQILQHLAAKHGINFHEMAFKEEKKCPTCQMTLKDIAHVGKLGCADCYATFKEDIIDIVQRVQGGQFEHVGKTPQSSYKKLAIKKQIEEKSKYLNKLIDGQEFEEAAIVRDEIKALKSESEVSHDE | not soluble |
| MGSDKIHHHHHHMLDLKQIGASESRQLKQAHDRGQLSHAYLLLSSDEVEALNTAYWLICYVNCTGEKKPDGTCPACRRILAGNHPDVFLIDTEENKQSIAIDQIRPLKQELAKSPLEGDRRYFVINHAQKLTLPAANALLNLLEEPAAPVVTFLIANNGGQILPTIKSRTQIINFSQQAASSKDRLLLANGMSQEEVDQVKSSQEVDQAVKFFYQELREHDSLAIVSAHQLAGLVKKQKQGTKAWEKYVWILLKKWGEKDLEKGDCQEAANFLADLMRVDQMRQSNVGFLNNLDYLALKWQQ | not soluble |
| MGSDKIHHHHHHMLDLNHGSGCQYQKPDRDPGITVAVNAAIDAALVVRNRSQVARQYVSTSGIGRECLRQIQYDYLAVPKDEGRDFEPKTLRIFEAGHRGEDVVAAWLRAAGFDLRTERRDGRQFGFSALNGRFKGHIDGCLVGGPVAMAYPALWENKALGVSSWKDVVKRGVVLSKPVYAAQLALYQAYMDLPAPTLFTALNRDTWEIHCELVPFDAALAQTMSDRAVQVVRASDAQELLPRASAERTSVICRGGKTAGGWHGACSWQDRCWGRCR | not soluble |
| MGSDKIHHHHHHMLELRHLRTLIALRDAGSLVEAAERVHLTQSALSHQIKDLEERLGSPLFLRKTRPVTFTRAGERLLALAEQILPQIRMAERDLARLAGHEQGRLHMAIECHSCFQWLMPTIDHFRDHWPEVEVDIPSGYSFDALPSLARESLDLVITADPQPLAGIHYEPLFRYEGLLAVGKQHPLARRDWVTPEELARETLITYPVEHTRLDVFTQFLTPAGFTPAEVRTAELTIMMMQLVASGRGVCALPNWALTEYLERGYVRALHLGEQGVWSTLFAAIREESRDAPWMEDFLRTARETSFAVLAGIKPA | not soluble |
| MGSDKIHHHHHHMLERTTRHVRPSLDGQAFYERCTQILSELDDAESSLRNVIAQPRGLLRVDLSGAHATKIVLPNIDQFHELYPDIELVISTGDRLVDLIREGIDCVVRAGRLDDSTLIARHLVDMPQVICASPDYLNKHGTPEQPEDLLSHYCVNFFSTSGGRNYPFELMVNGKKQDYFLKSWIAVNDAENYVLSALQGAGLIQVPHYHVANELKNGRLVEVLSEWESPKMSVSALYPQHRQLSPRVRVFVAWLSELYTGYFANFEYPQK | not soluble |
| MGSDKIHHHHHHMLESYITVKQDGFSEIEIKKSRFICSVKRVTSEEEAKAFIAAIKKEHWKANHNCSAFVIGEKNDIQRSSDDGEPSGTAGVPMLEVLKKKELINVVAVVTRYFGGIKLGTGGLIRAYSHALSHTLDEIGLVIGKLQQELLITIAYPLLGKAQAFLEHSPYTLKETIYTESIQLICLVDEQATETFIAEMTDLLNGQLTIEKGATSYHELPFNEKGAQANDI | not soluble |
| MGSDKIHHHHHHMLFDTSPKDNRKDFFDREKEIEKLKGLRAPITLVLGLRRTGKSSIIKIGINELNLPYIYLDLRKFEERNYISYKDFLLELQKEINKLVKRLPSLLKALKNIQGIVIMGNEIKFNWNRKDRLSFANLLESFEQASKDNVIIVLDEAQELVKLRGVNLLPALAYAYDNLKRIKFIMSGSEMGLLYDYLRVEDPESPLFGRAFSTVELKPFSREEAIEFLRRGFQEADIDFKDYEVVYEKIGGIPGWLTYFGFIYLDNKNLDFAINQTLEYAKKLILKEFENFLHGREIARKRYLNIMRTLSKCGKWSDVKRALELEEGIEISDSEIYNYLTQLTKHSWIIKEGEKYCPSEPLISLAFS | not soluble |
| MGSDKIHHHHHHMLFYLPVTGQNTAVYPDQFGAYFNNMHLVTPSYFPKDVKVNLSLSYKSRTGALNKISTFNVAFTRVFNHTKPTNHLIRIYFYNEKDGPYIHRPRAYINYGYKIALSKQVNIAAGAAFGFAQTAFTAPSSTANGNSISPDASIGLSLQVKNFEAGFSVCQLLNSEVNPVVAPIIYRRYYNTYLSYHADLSPFIKLKSGMLWRALPTYDDDLNIYSMLEYKETISFGGCYRYNKNFSFVVSTNIHIGKESILLSFVYNTPFFTKLPAWTDSVELNGGYNFY | not soluble |
